Drawing on PMC4191429, “Interactions of the yeast mitochondrial RNA polymerase with the +1 and +2 promoter bases dictate transcription initiation efficiency”, this text covers binding signal for 2 molecules.

Holding throughout (details): protein: recombinant;recombinant; tags: Ni2+ column purified; copies: 1;1; label: 2-aminopurine
The target in data set [1] is T1, Rpo41 (mitochondrial RNA polymerase);Mtf1 (mitochondrial transcription initiation factor) (Saccharomyces cerevisiae;Saccharomyces …, UniProt P13433;P14908 1-1351;2-341, |). Put plainly: 2-aminopurine fluorescence; ATP+GTP; 2-AP assay buffer, salt, pH and temperature not in the material (transcription assays at 25 C).
Data set [2] concerns the target T1, Rpo41 (mitochondrial RNA …). Put plainly: 2-aminopurine fluorescence; no NTP; 2-AP assay buffer, salt, pH and temperature not in the material (transcription assays at 25 C).
Data set [3] shares this target. Nature of the data set: 2-aminopurine fluorescence; ATP; 2-AP assay buffer, salt, pH and temperature not in the material (transcription assays at 25 C).

T1 sequence (P13433 whole entry, chain 1 of 2): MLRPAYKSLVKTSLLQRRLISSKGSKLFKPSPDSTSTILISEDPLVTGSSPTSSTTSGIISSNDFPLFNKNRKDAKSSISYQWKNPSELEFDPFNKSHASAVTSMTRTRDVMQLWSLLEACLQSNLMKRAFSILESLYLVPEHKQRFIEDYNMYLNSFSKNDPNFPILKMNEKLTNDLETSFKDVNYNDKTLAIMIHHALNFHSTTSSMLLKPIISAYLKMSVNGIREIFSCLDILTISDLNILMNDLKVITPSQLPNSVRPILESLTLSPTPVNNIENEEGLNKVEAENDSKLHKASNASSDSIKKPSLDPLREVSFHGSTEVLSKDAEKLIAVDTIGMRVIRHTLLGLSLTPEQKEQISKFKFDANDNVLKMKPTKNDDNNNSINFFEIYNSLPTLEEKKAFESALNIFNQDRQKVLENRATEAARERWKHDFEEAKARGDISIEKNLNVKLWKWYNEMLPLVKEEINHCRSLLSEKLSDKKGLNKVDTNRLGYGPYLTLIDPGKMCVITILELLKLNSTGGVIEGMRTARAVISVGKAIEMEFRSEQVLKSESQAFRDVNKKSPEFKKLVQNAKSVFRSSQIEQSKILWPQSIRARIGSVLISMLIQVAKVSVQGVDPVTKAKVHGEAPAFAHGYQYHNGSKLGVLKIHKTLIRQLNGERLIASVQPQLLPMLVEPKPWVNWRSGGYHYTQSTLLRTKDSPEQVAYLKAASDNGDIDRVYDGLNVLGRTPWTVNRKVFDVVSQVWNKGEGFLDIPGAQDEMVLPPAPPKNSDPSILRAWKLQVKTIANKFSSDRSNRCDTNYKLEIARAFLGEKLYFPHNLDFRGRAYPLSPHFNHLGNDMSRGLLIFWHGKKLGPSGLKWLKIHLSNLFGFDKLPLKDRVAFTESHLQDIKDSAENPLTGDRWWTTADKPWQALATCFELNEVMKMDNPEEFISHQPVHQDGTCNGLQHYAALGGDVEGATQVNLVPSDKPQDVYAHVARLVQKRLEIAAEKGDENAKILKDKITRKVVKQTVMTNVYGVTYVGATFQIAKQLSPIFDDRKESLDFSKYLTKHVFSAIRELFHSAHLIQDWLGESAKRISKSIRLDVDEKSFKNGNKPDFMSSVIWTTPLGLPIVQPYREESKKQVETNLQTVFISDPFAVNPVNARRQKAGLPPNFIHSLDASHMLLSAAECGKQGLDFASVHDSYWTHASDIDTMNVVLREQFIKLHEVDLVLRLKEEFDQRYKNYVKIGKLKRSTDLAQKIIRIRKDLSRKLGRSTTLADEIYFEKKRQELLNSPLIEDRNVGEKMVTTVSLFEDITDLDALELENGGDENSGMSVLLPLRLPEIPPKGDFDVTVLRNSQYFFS
T1 sequence (P14908 2-341, chain 2 of 2): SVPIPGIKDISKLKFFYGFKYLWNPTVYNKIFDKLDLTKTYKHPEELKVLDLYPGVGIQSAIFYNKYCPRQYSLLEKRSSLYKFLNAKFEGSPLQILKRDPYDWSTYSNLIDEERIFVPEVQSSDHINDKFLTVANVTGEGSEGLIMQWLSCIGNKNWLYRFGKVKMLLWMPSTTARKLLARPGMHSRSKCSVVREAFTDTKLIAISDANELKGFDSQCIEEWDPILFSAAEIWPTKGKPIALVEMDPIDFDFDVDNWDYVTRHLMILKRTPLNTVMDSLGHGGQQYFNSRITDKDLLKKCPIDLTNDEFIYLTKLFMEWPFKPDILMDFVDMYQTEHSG

B1: 21S rRNA promoter (+1+2 AG), 2-AP at -1 template (dsDNA)
DNA 1: TATTATTATTATTATATATATAAGTAGTAAAAAGTAGAATAATCT
DNA 2: AGATTATTCTACTTTTTACTACTTATATATATAATAATAATAATA
modifications: 2-aminopurine at -1 template
Turning to B1, the figures for the binding signal in data set [1] and in data set [2] were ~4 further fold 2-AP fluorescence increase over the complex without NTP and ~5 fold 2-AP fluorescence increase, respectively.

B2: 15S rRNA promoter (+1+2 AA), 2-AP at -1 template (dsDNA)
DNA 1: ATAATTTATTTATTATTATATAAGTAATAAATAATAGTTTTATCT
DNA 2: AGATAAAACTATTATTTATTACTTATATAATAATAAATAAATTAT
modifications: 2-aminopurine at -1 template
In the case of B2, the binding signal in data set [3] is ~4 further fold 2-AP fluorescence increase over the complex without NTP; in data set [2] it was ~5 fold 2-AP fluorescence increase.
